Among the data in patent US20200024330A1 are IC50 (ug/ml), neutralization, IC50, pseudovirus neutralization (TZM-bl) and IC50, pseudovirus neutralization (TZM-bl), control virus values, retold here.

Common to all, as to assay: cell-based or functional assay
The target in test [1] is HIV-1 JR-CSF Env Y318A (pseudovirus) (HIV-1 JR-CSF) (UniProt P20871).
The target of test [2] is HIV-1 JR-CSF Env I309A (pseudovirus) (HIV-1 JR-CSF) (UniProt P20871).
Test [3] deals with HIV-1 Env of isolate TR0.11 (HIV-1).
Test [4] has as its target HIV-1 JR-CSF Env, wild type (pseudovirus) (HIV-1 JR-CSF) (UniProt P20871).
Test [5] addresses HIV-1 Env of isolate PVO.4 (HIV-1).
Test [6] concerns the target HIV-1 Env of isolate DU156 (HIV-1).
Test [7] concerns the target HIV-1 Env of isolate CAAN (HIV-1).
Test [8] has as its target HIV-1 Env of isolate REJ04541 (HIV-1).
Test [9] has as its target HIV-1 Env of isolate ZM214 (HIV-1).
For test [10], the target named is HIV-1 Env of isolate ZM249 (HIV-1).
Test [11] concerns the target HIV-1 92RW020 Env (pseudovirus) (HIV-1 92RW020).
For test [12], the target named is HIV-1 ADA Env (pseudovirus) (HIV-1 ADA).
For test [13], the target named is HIV-1 Env of isolate THRO.18 (HIV-1).
The target in test [14] is MuLV envelope protein (control pseudovirus) (MuLV).
Test [15] deals with HIV-1 Env of isolate AC10 (HIV-1).
The target in test [16] is HIV-1 Env of isolate Du172 (HIV-1).
Test [17] addresses HIV-1 Env of isolate ZM233 (HIV-1).
For test [18], the target named is HIV-1 Env of isolate DU422 (HIV-1).
The target in test [19] is HIV-1 Env of isolate CAP45 (HIV-1).
For test [20], the target named is HIV-1 JR-FL Env E168K (pseudovirus) (HIV-1 JR-FL).

B1: 1469_M23 (PG16) (TCN-118) (antibody, V domains shown)
VH: QEKLVESGGGVVQPGGSLRLSCLASGFTFHKYGMHWVRQAPGKGLEWVALISDDGMRKYHSDSMWGRVTISRDNSKNTLYLQFSSLKVEDTAMFFCAREAGGPIWHDDVKYYDFNDGYYNYHYMDVWGKGTTVTVSS
VL: QSALTQPASVSGSPGQTITISCNGTRSDVGGFDSVSWYQQSPGRAPKVMVFDVSHRPSGISNRFSGSKSGNTASLTISGLHIEDEGDYFCSSLTDRSHRIFGGGTKLTVLG
Consider B1, for which the IC50 (ug/ml), neutralization is more than 1 µg/mL in test [1]; more than 1 µg/mL in test [2]; 0.002 µg/mL in test [4]; 0.05 µg/mL in test [11]; 0.005 µg/mL in test [12]; 0.005 µg/mL in [20]. Besides, the IC50, pseudovirus neutralization (TZM-bl) is 7.52 µg/mL in [3]; 21.2 µg/mL in test [5]; less than 0.01 µg/mL in [6]; 17.7 µg/mL in test [7]; 0.39 µg/mL in [8]; more than 25 µg/mL in [9]. For the same molecule, the IC50, pseudovirus neutralization (TZM-bl) in test [10] is less than 0.01 µg/mL; in test [13], 7.01 µg/mL; in [15], less than 0.01 µg/mL; in test [16], less than 0.01 µg/mL; in [17], less than 0.01 µg/mL; in [18], 0.97 µg/mL. The IC50, pseudovirus neutralization (TZM-bl) in test [19] was less than 0.01 µg/mL. Besides, in [14], the IC50, pseudovirus neutralization (TZM-bl), control virus was more than 25 µg/mL.

B2: 1489_I13 (PG16) (TCN-120) (antibody, V domains shown)
VH: QEQLLESGGGVVQPGGSLRLSCLASGFTFHKYGMHWVRQAPGKGLEWVALISDDGMRKYHSNSMWGRVTISRDNSKNTLYLQFSSLKVEDTAMFFCAREAGGPIWHDDVKYYDFNDGYYNYHYMDVWGKGTTVTVSS
VL: QSALTQPASVSGSPGQTITISCNGTSSDVGGFDSVSWYQQSPGKAPKVMVFDVSHRPSGISNRFSGSKSGNTASLTISGLHIEDEGDYFCSSLTDRSHRIFGGGTKVTVLG
For B2, the IC50 (ug/ml), neutralization in test [1] was more than 1 µg/mL; in test [2], more than 1 µg/mL; in test [4] it was 0.002 µg/mL; in [11], 0.03 µg/mL; in test [12], 0.008 µg/mL; in [20] it was 0.005 µg/mL. Also, the IC50, pseudovirus neutralization (TZM-bl) in [3] was 10.9 µg/mL; in test [5] it was 20.6 µg/mL; in test [6] it was less than 0.01 µg/mL; in test [7] it was 24.9 µg/mL; in test [8] it was 0.34 µg/mL; in test [9], more than 25 µg/mL. The IC50, pseudovirus neutralization (TZM-bl) in [10] was less than 0.01 µg/mL; in [13], 7.41 µg/mL; in test [15] it was less than 0.01 µg/mL; in [16] it was less than 0.01 µg/mL; in test [17], less than 0.01 µg/mL; in [18], 1.87 µg/mL. The same molecule returned an IC50, pseudovirus neutralization (TZM-bl) in test [19] of less than 0.01 µg/mL. This molecule came in with an IC50, pseudovirus neutralization (TZM-bl), control virus in test [14] of more than 25 µg/mL.
